Test: soluble fraction after stress (log2 fold change); higher = more stays soluble; pooled small domains, quantitative proteomics
Conditions: stress: 75 degC
For “HMVIDETVLIDLFERLAEDDRPQRVAFRYILALVLLRKRTLQLIGREDEDDGEIWLLRFKGTDGEPIRV”, the “soluble fraction (log2)” value was -0.463.
With “HMVIGKHSGSHTLVNDLAKRGITLDKEESATLLEMVRKAAVGLHRSISSDELYGLYKDMKSGQDPFEDS” the “soluble fraction (log2)” value was 0.139.
With “HMVINVKEILERIKLVKGFHTQIEIARFLGVSKGTISNWLARNSVDFPLVISKLDGVDLNWLFTGIGMPQ” the “soluble fraction (log2)” value was -3.77.
For “HMVISNDEFEDYLNRATEQLVSELSSGKNPRDAVHDLALTFADQHNKSYDAYQRMADSLEARMHTL”, the “soluble fraction (log2)” value was 0.0871.
With “HMVITEQTVTVKYLYEDDTEAAPEHSETHKTGETFEIESPKIDGFTPDYELITGTIANDDLVYIVRYKTTP” the “soluble fraction (log2)” value was -0.487.
In the case of “HMVITQVSTTQTDTTFQYHKVKPKETLFSISRLYEVSIDEIKTINPALNSRELMAGELLKLPIK”, the “soluble fraction (log2)” value is reported as -1.4.
With “HMVKGIVPNLIGKTQDEAKQMAEEYGFSIGTVSEKASDKPKGTVIEQSPKAGAKASGVTSINIVVSDGS” the “soluble fraction (log2)” value was -0.121.
For “HMVKKYEKVKEYLLERILDGTYVPDLPIPPERELASLLDVNRMTVRRAVEELMYDGYLIRKKGSGTYLTR”, the “soluble fraction (log2)” value was -1.6.
In the case of “HMVKLSVGDIVQFAGGPHYVSSSAAKPASSPTAGPAKVTMIYQGAKHPYHIVHTTSASTVWGWVDADKVVK”, the “soluble fraction (log2)” value is reported as 0.0767.
In the case of “HMVKNLRKLREELGLTQQRLAELTGISKSRIYSYESLDREPDIAGLITLADFFSVSIDYLVGK”, the “soluble fraction (log2)” value is reported as -2.66.
For “HMVKPKIILADIGMITETDVTLAKASQAVLIAFNVKPSKEAKKLAEDENIKISTYNIIYEVLDFVKKSMSG”, the “soluble fraction (log2)” value was 0.304.
With “HMVLALRGIVQGGAEPLVILSDGRTSQSLAVGERFLAYEVVEIGRTGVRLRGPEGEIWLAMASF” the “soluble fraction (log2)” value was -1.2.
With “HMVLANLQAAEQGDLGIKEGEKLTILQTRPDGWWTARNANGETGLVPK” the “soluble fraction (log2)” value was 0.186.
For “HMVLFDLSEREKEVLKLLADGNSYKMIASRLEITYFTVNAHLKKIYEKLQVHSASEAVSVALRNSL”, the “soluble fraction (log2)” value was -1.19.
In the case of “HMVLIQNEDVKDISNYPLLSSVPVFDVFNNKMIIPTFNKDSFNPLIYNFNFNSKRRLIYRVDNTNYLIVIK”, the “soluble fraction (log2)” value is reported as 0.0494.
In the case of “HMVLMPIDALRGSSSSSEMRIAAVKFSPSKGWYFSLQERSDEGSSYYEQKVASDGSVSERVKVR”, the “soluble fraction (log2)” value is reported as -0.58.
In the case of “HMVLNVMIEEEVHREIIAAISKLPKERRRVVELSMAGFSQEEIAEKMAISVNTVKTIKLRAYRVLRERLKG”, the “soluble fraction (log2)” value is reported as -3.78.
For “HMVLPELRLQGLPTAVLRLINRATALADDYRRLMEIAEDGRIDEWEAPEFERISENIQRVIAAGFEVL”, the “soluble fraction (log2)” value was 0.0637.
With “HMVLQHHTATKALSYHTSASASAAVKGSFARGDSVQVVQGGSQTADGAKWHKVKVGSSYYYAAAEHLTP” the “soluble fraction (log2)” value was ≥ 1.04.
For “HMVLTYYSVLGVKTDATTEEIKSTYKQLAIRNHPDRGGSEEVMKMINLAAEILSDPKSRKEYDLSLDA”, the “soluble fraction (log2)” value was -2.06.
With “HMVLVLPGEMIHVQVIDEGKEMGQGVGYLDDGTMVVVENGLRHIGRAIDVQVTKVLQTNAGRMIFGQPIL” the “soluble fraction (log2)” value was -1.71.
With “HMVMAELRISVDRLQIGNYIKLPLSWRDHPFLLSSFMIKKEEQIQLIRQLRLKHVFIIPEKSDAPPKPA” the “soluble fraction (log2)” value was -4.2.
With “HMVMNYKKIGKKIADRRILLGITQEELAEKVDSSANYISNIETGIKSGSLIFYIKVANELKLSLDFLFSDE” the “soluble fraction (log2)” value was -3.09.
With “HMVMPTGRVRYYDAEKGFGFLSKDSGGDDVYVRSSALPAGVTSLKRGQKVEFGIIDGKRGEQALSVHLL” the “soluble fraction (log2)” value was -0.202.
For “HMVMTTVPEVLGMDIRTAASMLTGKNLKYDYDLVESDKPKDEVIEQDQAKGTEVPEGTVVKLKVSKGPA”, the “soluble fraction (log2)” value was 0.143.
With “HMVMTTVPEVLGMDISKAASLLTGKNLDYDYDLVESDKPKDQVIEQDVVKGTEVPEGTVIHLKVSKGPA” the “soluble fraction (log2)” value was 0.258.
In the case of “HMVMVVDVLKALSNNSSDKFFNTSISNAIKAQEDSQEDFVTLFGIEYEKLSPNNGLAVIFTSQ”, the “soluble fraction (log2)” value is reported as 0.865.
In the case of “HMVNDDTIAATEAEILALLADKHRHHITELNSIRRPYEQIDAALSSLINEEKIFQEDGMLFV”, the “soluble fraction (log2)” value is reported as 0.543.
For “HMVNGEFIDRIKVILQENNATRKKDRLTKTRMYQLLQEEGYEGSYSAFTYQVRIIEEELGINNK”, the “soluble fraction (log2)” value was -2.31.
With “HMVNSIQIHKKLRLDKRAGSDNWYARLTLPNGKRLVKTTKTEDIETAKEVALRLYYEVDARIQNKLPAT” the “soluble fraction (log2)” value was -1.72.
In the case of “HMVPADVQHLRDIVDTMTEKQQLVYKLHVLEGYTFTEIAKLMGTSIPNVKKHYDKAILFIKNNF”, the “soluble fraction (log2)” value is reported as -1.79.
In the case of “HMVPEEEATKISVQNVGASDYNFTVKGVQANDPTLTLVRGKTYEFDVTSLGHPFWIKTQKVTGSSSQY”, the “soluble fraction (log2)” value is reported as 0.354.
In the case of “HMVPLSPRFFDIFRKRKDLTRQNVDVYFRDHPTEITAFERYIKGLVSQSYIPAERADALLLVASQYKAK”, the “soluble fraction (log2)” value is reported as -1.58.
In the case of “HMVPSTAVIFTELVSMRSEPATKSPVTHQLTKGTAITINEEKDGWYQVTDQTGNSGWIVKWAVKPTYFTNP”, the “soluble fraction (log2)” value is reported as -0.967.
With “HMVPTYEAYVGKEGLVVGTLRPAGTAEFDGERLDVVSEGEYLEAGTRVQIVRTEGRRIVVRKIN” the “soluble fraction (log2)” value was -0.275.
For “HMVPVVGTTIPHEFIGKFGSARVMLKPAVEGSGVIAGGSARAVLELAGYKDIKTKVLGTNNPRNVVYATMN”, the “soluble fraction (log2)” value was 0.238.
For “HMVQDDDPNSVAKFIDQVIESNPEQVEQYRSGKEKVFNFFLGQTMRLSKGKANPDLVSELLKEKLS”, the “soluble fraction (log2)” value was 0.0209.
With “HMVQIQDIAFSEFLNELEKGNILDVNIKGDLINGNMLDGKKFKTYAPYDPSLVEKLSKQNVTINVEPVN” the “soluble fraction (log2)” value was 0.109.
With “HMVQMKIRAYELEPNDFFIKQNMTYRVMRIQNGMIYAKHLLNSTPITFGAKSMEFVLWTGKYS” the “soluble fraction (log2)” value was -2.21.
For “HMVQQTEEDVIRDMYVEGKIFTIGEEVTDTYTGVTGKIIRRGTNYVTFMSEDGETYKKWLYEIELA”, the “soluble fraction (log2)” value was -0.61.
For “HMVRDGDTFVVPKMDRFARNVEDTLHLVRELTERGVIFQMGHTVYDPHDPWSKLFLTFLAAIAEA”, the “soluble fraction (log2)” value was 0.0785.
For “HMVREVGYNAFLAMLDSGAVKEVARDESEGQITFLATDEKGKERVYKTGIWPDDTLTERLNTAGVEFA”, the “soluble fraction (log2)” value was 0.351.
With “HMVREVSYDQFLHFVEAKQVGMVYQDGESLMFTLKEDVEKEWGVTAYKTGLWPDANLTDRLLDAGVVFS” the “soluble fraction (log2)” value was -2.32.
With “HMVRGNLAEELLKLREEEGISFQEAGARSGIARSTISQVVNQGLRLKPNQEESLWRVIEEVRGVKER” the “soluble fraction (log2)” value was 0.0321.
With “HMVRSEDLIGLQGRITLATDVETRGFVELSVKGSLLRRPALSLKGPLAKNTAVVVTASNDHTLEVEAL” the “soluble fraction (log2)” value was -0.985.
With “HMVRSKLEIVPVPEDAVVKIAGLKRLTYQAYQNEDVPYMVYKNGYEAQSGTVFMDTDKTLTVTLEESP” the “soluble fraction (log2)” value was -0.0399.
In the case of “HMVSAMLLHKKEILNLLAEEPEALHFASLLRAFGGRHIKNELKQIVDDLVRSGEILRLRGNRYTLPGADN”, the “soluble fraction (log2)” value is reported as -1.5.
In the case of “HMVSATKAFVNGGNIVVSSPKATRVAVYNVAGQKVAEQAFAGKATIKASDFAKGIYVLKFNDNTVLKLT”, the “soluble fraction (log2)” value is reported as -0.955.
With “HMVSDAELTSQATTAITAYPGTSVEVKEGQAHLSGTFATEADKQAAIDALKKIQDVKDVHDMATV” the “soluble fraction (log2)” value was 0.152.
For “HMVSDSAELSAFVADVIKENAQAVADYKGGKTNVFGWLMGQIIKKSGGKATPAAAAALLKAELEK”, the “soluble fraction (log2)” value was -0.0308.

Reference: the domain aggregation screens of Martell et al. (2025)
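Note: 20 min heating vs room temperature control held 20 min.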
